According to patent publication US20230331817A1 (The Regents of the University of California, priority 2020, published 2023):
Where no end group is shown, it is not given here.

Tests used:
plasmin kringle domain = plasmin kringle domain (UniProt P00747); assay: not stated (SPR implied)
human plasmin [1] = target: T1, human plasmin (human, UniProt P00747 97-810); assay: cell-based or functional assay
human plasmin [2] = target: T1, human plasmin; assay: plasmin amidolytic inhibition, slow tight binding equation
Procedure: (§1) Reactions were carried out in TBS/BSA and 2 mM calcium. […] Synthetic substrate for plasmin was then added to a final concentration of 1 KM, and residual amidolytic activity was measured in a kinetic microplate reader (Molecular Devices). […] Data are analyzed using an equation for a tight-binding inhibitor and Kᵢ values are obtained by correcting for the effect of substrate concentration.

plasma kallikrein [3] = target: T2, plasma kallikrein (human, UniProt P03952 20-638); assay: protease amidolytic inhibition, tight-binding equation
T2 construct: also called pKLK; KLK
T2 sequence (P03952 20-638 limits assumed): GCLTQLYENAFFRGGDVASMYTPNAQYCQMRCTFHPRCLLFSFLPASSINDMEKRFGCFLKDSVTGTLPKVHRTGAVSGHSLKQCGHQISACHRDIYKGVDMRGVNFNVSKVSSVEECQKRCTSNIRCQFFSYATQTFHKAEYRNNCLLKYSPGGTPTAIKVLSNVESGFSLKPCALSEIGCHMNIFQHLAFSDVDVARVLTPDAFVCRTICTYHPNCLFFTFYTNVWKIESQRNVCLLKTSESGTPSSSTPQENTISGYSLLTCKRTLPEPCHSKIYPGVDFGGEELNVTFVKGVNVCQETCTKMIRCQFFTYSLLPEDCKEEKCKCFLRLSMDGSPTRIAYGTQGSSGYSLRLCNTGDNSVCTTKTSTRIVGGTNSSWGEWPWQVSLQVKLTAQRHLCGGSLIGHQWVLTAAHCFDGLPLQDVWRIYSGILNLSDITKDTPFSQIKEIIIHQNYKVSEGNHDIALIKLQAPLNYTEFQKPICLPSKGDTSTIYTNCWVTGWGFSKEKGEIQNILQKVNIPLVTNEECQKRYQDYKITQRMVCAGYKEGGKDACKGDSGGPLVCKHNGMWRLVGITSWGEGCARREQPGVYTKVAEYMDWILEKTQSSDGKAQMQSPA

human plasmin [4] = target: T1, human plasmin; assay: as above
human plasmin [5] = target: T1, human plasmin; assay: plasmin amidolytic inhibition, sample kept at 4° C., Day 1
Procedure: as §1

human plasmin [6] = target: T1, human plasmin; assay: plasmin amidolytic inhibition, sample kept at 4° C., Day 2
Procedure: as §1

human plasmin [7] = target: T1, human plasmin; assay: plasmin amidolytic inhibition, sample kept at 4° C., Day 3
Procedure: as §1

human plasmin [8] = target: T1, human plasmin; assay: plasmin amidolytic inhibition, sample kept at 4° C., Day 4
Procedure: as §1

human plasmin [9] = target: T1, human plasmin; assay: plasmin amidolytic inhibition, sample kept at 4° C., Day 5
Procedure: as §1

human plasmin [10] = target: T1, human plasmin; assay: plasmin amidolytic inhibition, sample kept at 4° C., Day 6
Procedure: as §1

human plasmin [11] = target: T1, human plasmin; assay: plasmin amidolytic inhibition, sample kept at 4° C., Day 7
Procedure: as §1

human plasmin [12] = target: T1, human plasmin; assay: plasmin amidolytic inhibition, sample kept at 37° C., Day 1
Procedure: as §1

human plasmin [13] = target: T1, human plasmin; assay: plasmin amidolytic inhibition, sample kept at 37° C., Day 2
Procedure: as §1

human plasmin [14] = target: T1, human plasmin; assay: plasmin amidolytic inhibition, sample kept at 37° C., Day 3
Procedure: as §1

human plasmin [15] = target: T1, human plasmin; assay: plasmin amidolytic inhibition, sample kept at 37° C., Day 4
Procedure: as §1

human plasmin [16] = target: T1, human plasmin; assay: plasmin amidolytic inhibition, sample kept at 37° C., Day 5
Procedure: as §1

human plasmin [17] = target: T1, human plasmin; assay: plasmin amidolytic inhibition, sample kept at 37° C., Day 6
Procedure: as §1

human plasmin [18] = target: T1, human plasmin; assay: plasmin amidolytic inhibition, sample kept at 37° C., Day 7
Procedure: as §1

human plasmin [19] = target: T1, human plasmin; assay: plasmin amidolytic inhibition, sample kept at room temperature, Day 1
Procedure: as §1

human plasmin [20] = target: T1, human plasmin; assay: plasmin amidolytic inhibition, sample kept at room temperature, Day 2
Procedure: as §1

human plasmin [21] = target: T1, human plasmin; assay: plasmin amidolytic inhibition, sample kept at room temperature, Day 3
Procedure: as §1

human plasmin [22] = target: T1, human plasmin; assay: plasmin amidolytic inhibition, sample kept at room temperature, Day 4
Procedure: as §1

human plasmin [23] = target: T1, human plasmin; assay: plasmin amidolytic inhibition, sample kept at room temperature, Day 5
Procedure: as §1

human plasmin [24] = target: T1, human plasmin; assay: plasmin amidolytic inhibition, sample kept at room temperature, Day 6
Procedure: as §1

human plasmin [25] = target: T1, human plasmin; assay: plasmin amidolytic inhibition, sample kept at room temperature, Day 7
Procedure: as §1

plasma kallikrein [26] = target: T2, plasma kallikrein; assay: protease amidolytic inhibition, against the 60 residue double mutant Y11T/L17R
factor XIa = target: T3, factor XIa (human, UniProt P03951 19-625); assay: as above
T3 construct: also called FXIa

[27] = target: T4, factor VIIa/soluble tissue factor (human, UniProt P08709 61-466; P13726 33-251); assay: as above
T4 construct: Complex of the enzyme FVIIa and its cofactor sTF, used at 20 nM; also called FVIIa/sTF; factor VIIa/tissue factor

human plasmin [28] = target: T1, human plasmin; assay: residual amidolytic activity of 3 nM human plasmin after incubation with the inhibitor (chromogenic substrate)

T1 sequence (P00747 97-810 limits assumed): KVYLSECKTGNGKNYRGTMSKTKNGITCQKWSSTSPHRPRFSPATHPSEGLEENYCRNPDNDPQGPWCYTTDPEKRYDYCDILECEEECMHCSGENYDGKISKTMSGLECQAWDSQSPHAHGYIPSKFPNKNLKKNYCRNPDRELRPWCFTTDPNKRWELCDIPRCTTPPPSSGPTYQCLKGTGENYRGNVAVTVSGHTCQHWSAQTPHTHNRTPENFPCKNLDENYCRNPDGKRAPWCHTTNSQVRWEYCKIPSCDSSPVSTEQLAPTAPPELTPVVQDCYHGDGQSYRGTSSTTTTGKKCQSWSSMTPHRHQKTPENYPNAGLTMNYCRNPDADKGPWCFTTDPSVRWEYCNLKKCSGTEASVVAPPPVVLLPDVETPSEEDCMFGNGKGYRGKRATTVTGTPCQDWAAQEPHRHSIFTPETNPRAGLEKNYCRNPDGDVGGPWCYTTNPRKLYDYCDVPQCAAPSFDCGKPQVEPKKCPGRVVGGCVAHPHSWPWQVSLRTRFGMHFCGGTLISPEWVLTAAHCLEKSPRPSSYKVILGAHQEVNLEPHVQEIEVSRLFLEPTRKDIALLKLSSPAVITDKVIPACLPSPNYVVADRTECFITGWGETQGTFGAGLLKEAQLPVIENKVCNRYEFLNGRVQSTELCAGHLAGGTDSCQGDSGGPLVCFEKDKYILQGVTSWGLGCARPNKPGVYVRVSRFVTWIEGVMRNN

B1: KD1Y11T/R15K/L17R-KT (designed binder)
chain: NAEICLLPLDTGPCKARLLRYYYDRYTQSCRQFLYGGCEGNANNFYTWEACDDACWRIEK
modifications: ends and bridges not checked; cysteine pairing not given here
notes: also called KD1TM; rHuKD1-TM
In the case of B1, the Kd (plasmin kringle domain) is reported as 40 nM, the “TEG G, 2 nM tPA + 2 µM KD1TM, whole blood” value (human plasmin [1]) is reported as 3530 dyn/cm^2 and the “TEG G, 2 nM tPA + 4 µM KD1TM, whole blood” value (human plasmin [1]) is reported as 4010 dyn/cm^2. The “TEG LY30, 2 nM tPA + 2 µM KD1TM, whole blood” value (human plasmin [1]) was 0.1%, the “TEG LY30, 2 nM tPA + 4 µM KD1TM, whole blood” value (human plasmin [1]) was 0% and the “TEG LY60, 2 nM tPA + 2 µM KD1TM, whole blood” value (human plasmin [1]) was 3.7%. For the same binder, the “TEG LY60, 2 nM tPA + 4 µM KD1TM, whole blood” value (human plasmin [1]) was 1.7%, the “TEG MA, 2 nM tPA + 2 µM KD1TM, whole blood” value (human plasmin [1]) was 41.4 mm and the “TEG MA, 2 nM tPA + 4 µM KD1TM, whole blood” value (human plasmin [1]) was 44.5 mm. For the same binder, the Ki (human plasmin [2]) was 0.05 nM, the Ki (plasma kallikrein [3]) was > 20 µM and the Ki (human plasmin [4]) was 0.15 nM. It also gave a Ki (human plasmin [5]) of 0.14 nM, a Ki (human plasmin [6]) of 0.13 nM and a Ki (human plasmin [7]) of 0.14 nM. It also gave a Ki (human plasmin [8]) of 0.14 nM, a Ki (human plasmin [9]) of 0.13 nM and a Ki (human plasmin [10]) of 0.15 nM. It also gave a Ki (human plasmin [11]) of 0.14 nM, a Ki (human plasmin [12]) of 0.15 nM and a Ki (human plasmin [13]) of 0.14 nM. It also gave a Ki (human plasmin [14]) of 0.15 nM, a Ki (human plasmin [15]) of 0.15 nM and a Ki (human plasmin [16]) of 0.15 nM. For the same binder, the Ki (human plasmin [17]) was 0.14 nM, the Ki (human plasmin [18]) was 0.15 nM and the Ki (human plasmin [19]) was 0.15 nM. It also gave a Ki (human plasmin [20]) of 0.14 nM, a Ki (human plasmin [21]) of 0.15 nM and a Ki (human plasmin [22]) of 0.14 nM. It also gave a Ki (human plasmin [23]) of 0.14 nM, a Ki (human plasmin [24]) of 0.15 nM and a Ki (human plasmin [25]) of 0.15 nM. The “fold weaker inhibition than the Y11T/L17R double mutant” value (plasma kallikrein [26]) was ≥ 10 fold, the “fold weaker inhibition than the Y11T/L17R double mutant” value (factor XIa) was ≥ 10 fold and the “fold weaker inhibition than the Y11T/L17R double mutant” value [27] was ≥ 10 fold. The “IC50 (read off the curve)” value (human plasmin [28]) was ~1 nM.
